Twelve molecules from publication PMC9330073, “Cargo Recognition Mechanisms of Yeast Myo2 Revealed by AlphaFold2-Powered Protein Complex Prediction” (Biomolecules, 2022) can be followed below.

Residue numbers refer to the chain shown, from its start. Where two headings read alike, the source gives them in different places.

For test [1], the target named is GST-Pea2-CC1 (GST-tagged Pea2-CC1; dimer) (Saccharomyces cerevisiae (strain S288c)) (UniProt P40091). Nature of the test: ITC; 500 μM Myo2-GTD in the syringe titrated into 50 μM Kar9-MIS or Pea2-MIS in the cell, 25 °C; one-site binding model.
Test [2] concerns the target Kar9^C (unstructured C-terminal region of Kar9) (Saccharomyces cerevisiae (strain S288c)) (UniProt P32526). The description is as above.
The target in test [3] is Kar9^N (N-terminal folded domain of Kar9) (Saccharomyces cerevisiae (strain S288c)) (UniProt P32526). The description is as above.
For test [4], the target named is GST-Pea2-CC1 (GST-tagged Pea2-CC1; dimer) (Saccharomyces cerevisiae (strain S288c)) (UniProt P40091). Nature of the test: SEC-MALS; 100 μL of 100 μM protein on Superdex 200 Increase 10/300 GL; 50 mM Tris-HCl pH 7.5, 100 mM NaCl, 1 mM EDTA, 1 mM DTT.
In test [5] the target is T1, Smy1-MIS::Myo2-GTD fusion protein (Saccharomyces cerevisiae | …).
T1 chain: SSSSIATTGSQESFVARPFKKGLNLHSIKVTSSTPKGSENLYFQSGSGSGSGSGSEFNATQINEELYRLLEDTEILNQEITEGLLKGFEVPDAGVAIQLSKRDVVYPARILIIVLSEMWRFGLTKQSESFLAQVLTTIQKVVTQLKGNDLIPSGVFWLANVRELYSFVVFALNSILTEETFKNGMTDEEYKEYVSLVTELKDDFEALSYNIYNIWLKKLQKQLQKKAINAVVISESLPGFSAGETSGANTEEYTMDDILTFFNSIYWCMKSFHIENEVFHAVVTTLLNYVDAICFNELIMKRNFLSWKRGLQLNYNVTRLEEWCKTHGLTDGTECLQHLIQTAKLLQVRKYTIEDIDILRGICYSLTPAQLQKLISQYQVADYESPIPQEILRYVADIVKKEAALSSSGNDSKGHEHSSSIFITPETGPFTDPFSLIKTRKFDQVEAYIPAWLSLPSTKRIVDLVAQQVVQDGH
Nature of the test: ITC.

The target of test [6] is T2, Myo2-GTD (globular tail domain of Myo2) (Saccharomyces cerevisiae (strain S288c), UniProt P19524 1152-1574).
T2 chain: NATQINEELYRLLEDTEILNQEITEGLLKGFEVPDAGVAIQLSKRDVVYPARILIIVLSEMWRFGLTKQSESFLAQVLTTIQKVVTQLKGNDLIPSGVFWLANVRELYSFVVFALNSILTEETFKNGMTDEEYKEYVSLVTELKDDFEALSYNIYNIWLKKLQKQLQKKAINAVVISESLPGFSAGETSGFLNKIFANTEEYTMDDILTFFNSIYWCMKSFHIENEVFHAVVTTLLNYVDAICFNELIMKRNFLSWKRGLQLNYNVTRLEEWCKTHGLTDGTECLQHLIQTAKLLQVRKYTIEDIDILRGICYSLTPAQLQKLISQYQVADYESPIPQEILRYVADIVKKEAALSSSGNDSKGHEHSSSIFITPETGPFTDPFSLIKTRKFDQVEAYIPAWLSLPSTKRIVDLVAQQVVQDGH
Nature of the test: ITC. (In ITC the heat of successive injections is recorded.)

Test [7] deals with T3, Myo2-GTD D1297N (Saccharomyces cerevisiae).
T3 chain: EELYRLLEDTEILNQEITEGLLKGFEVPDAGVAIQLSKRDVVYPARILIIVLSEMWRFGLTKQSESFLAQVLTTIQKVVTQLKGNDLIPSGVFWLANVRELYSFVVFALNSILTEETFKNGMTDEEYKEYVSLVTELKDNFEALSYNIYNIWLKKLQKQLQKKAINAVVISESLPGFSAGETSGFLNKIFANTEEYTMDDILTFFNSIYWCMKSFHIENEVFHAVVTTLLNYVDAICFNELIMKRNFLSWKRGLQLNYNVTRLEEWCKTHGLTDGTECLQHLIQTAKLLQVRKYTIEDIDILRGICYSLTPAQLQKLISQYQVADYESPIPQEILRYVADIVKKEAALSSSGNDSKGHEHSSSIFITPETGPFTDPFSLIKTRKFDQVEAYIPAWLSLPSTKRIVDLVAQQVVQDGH
Nature of the test: ITC.

The target in test [8] is T2, Myo2-GTD (globular tail domain of Myo2). Nature of the test: ITC.
Test [9] addresses T4, Myo2-GTD L1331S (Saccharomyces cerevisiae (strain S288c)).
T4 chain: T3 chain with N140D, L174S
Nature of the test: ITC.

The target in test [10] is T5, Myo2-GTD Y1303A (Saccharomyces cerevisiae).
T5 chain: T3 chain with N140D, Y146A
Nature of the test: ITC.

The target in test [11] is T6, Myo2-GTD W1407A (Saccharomyces cerevisiae (strain S288c)).
T6 chain: T3 chain with N140D, W250A
Nature of the test: ITC.

As for “Myo2-GTD (globular tail domain of Myo2) (from UniProt P19524 1152-1574) (domain or fragment)”, in test [1], the fold enhancement of the binding affinity over the Pea2-CC1 monomer was 5 fold and the stoichiometry N (usually the number of molecules, sites or subunits per partner or assembly) worked out at 0.5. For the same molecule, the Kd – broadly, the concentration at which binding is half-saturated – in [2] was 3 µM. In test [3], the Kd is 16 µM.

Turning to “GST-Pea2-CC1 (GST-tagged Pea2-CC1; dimer) (from UniProt P40091 235-327) (domain or fragment)”, in test [4], the stoichiometry N was found to be 2.

B1: Mmr1 (peptide)
chain: GNSARIPCPKTRLARVSVLDLKKIEEQPDSSSG
modifications: Limits taken from 6IXQ: the fusion as Smy1-MIS, TEV site, SG linker, Myo2-GTD, assumed uncleaved as a single chain; the linker is part of the fusion
In turn, B1 had an equilibrium dissociation constant (Kd) in test [5] of 6.2 µM. That is a single-digit micromolar value.

For GNSARIPCPKTRLARVSVLDLKKIEEQPDSSSG, the results for the Kd in [6] and in test [7] were 6.8 µM and 21 µM, respectively.

B2: Kar9 413-530 (protein)
chain: KKKIPKPKSLGFGRPNSVIGTITQDFQERVAINEGDSNKTPENSTTVALKGKKLGKALLQKMNIKPATSPNSSNAINPFFDPESPNKGKLILSSVPPLPYDETDETTLRVSRGENEKS
B2: the Kd in test [8] stood at 6.9 µM. As to NHGFHLDILKGRK [Inp2], binding in test [6] was put at a Kd of 32 µM.

B3: Vac17-MIS (Myo2-interacting sequence of Vac17) (domain or fragment)
chain: PNEAPNDSPQSQSTRSSLGSFQPRPLKIIERQRLCMVTPSKPPKKS
modifications: Limits taken from 6IXQ: the fusion as Smy1-MIS, TEV site, SG linker, Myo2-GTD, assumed uncleaved as a single chain; the linker is part of the fusion
Molecule B3 had a Kd in [5] of 0.32 µM.

B4: GST-Pea2-CC1 (GST-tagged Pea2-CC1; dimer) (domain or fragment)
chain: AIQEEDSSKKLEELETAFSDLQLAHNFLTKQFENDRAEYVQDIEKLTRTNRELQDKLLNNHSNLSKTEKKLHELEQENKELEKANNKLNSSRH
modifications: N-terminal GST (pGEX-4T-1) left out; GST drives the dimerization Limits taken from 6IXQ: the fusion as Smy1-MIS, TEV site, SG linker, Myo2-GTD, assumed uncleaved as a single chain; the linker is part of the fusion
In test [5], B4 had a Kd of 12 µM.

B5: Kar9^C-MIS (Myo2-interacting sequence in the C-terminal region of Kar9) (domain or fragment)
chain: ALKGKKLGKALLQKMNIKPATSPNSSNAINPFFDPESPNKGKLILSSVPPLPY
Turning to B5, the Kd in [8] turned out to be 7.7 µM; in test [9], 8.9 µM; in test [10], 7.1 µM; in test [7] it was 7.7 µM; in test [11], 7.5 µM.

B6: Kar9^N (N-terminal folded domain of Kar9) (domain or fragment)
chain: MDNDGPRSMTIGDDFQENFCERLERIHNTLHSINDCNSLNESTTSISETLLVQFYDDLENVASVIPDLVNKKRLGKDDILLFMDWLLLKKYMLYQFISDVHNIEEGFAHLLDLLEDEFSKDDQDSDKYNRFSPMFDVIEESTQIKTQLEPWLTNLKELLDTSLEFNEISKDHMDTLHKIINSNISYCLEIQEERFASPIRHTPSFTLEQLVKLLGTHTETTEPKVPKFSPAEDILSRKFLNLKKNIPPIEKSLTDILPQRIVQFGHRNITNITTLQTILQKKYELIMKDYRFMNSEFRELKVELIDKRWNILFINLNHELLYILDEIERLQSKLLTTKYTKDITIRLERQLERKSKTVSKTFNIIYRALEFSLLDAGVASKTNELAQRWLNIKPTADKILIKSSASNKIATSKKKIPKPKSLGFGRPNSVIGTITQDFQERVAINEGDSNKTPENSTTVALKGKKLGKALLQKMNIKPATSPNSSNAINPFFDPESPNKGKLILSSVPPLPYDETDETTLRVSRGENEKSPDSFITSRHENKVQITETPLMAKNKSVLDIEKDKWNHYRSLPSRIPIYKDKVVKVTVENTPIAKVFQTPPTKITTPNSQVWVPSTRRRTRLRPPTPLSQLLSPREGRLDKTPTY
For the molecule B6, the Kd in [10] and in [7] was 16 µM in each case.

B7: Kar9^N (N-terminal folded domain of Kar9) (domain or fragment)
chain: B6 chain
modifications: Limits taken from 6IXQ: the fusion as Smy1-MIS, TEV site, SG linker, Myo2-GTD, assumed uncleaved as a single chain; the linker is part of the fusion
As for B7, the Kd in test [5] was determined as 17 µM. This counts as double-digit micromolar. As for SSSSIATTGSQESFVARPFKKGLNLHSIKVTSSTPK (domain or fragment) [Smy1-MIS (Myo2-interacting sequence of Smy1)], the Kd in test [10] came to 14 µM; in test [6], 21 µM; in test [7] it was 14 µM.
